In test [1] the target is CFP:MtRH10 (Medicago truncatula). Kind of test: FRET or BRET.
In test [2] the target is RPL7:CFP (Medicago truncatula). Kind of test: FRET or BRET. For orientation: BRET reads energy transfer from a luciferase to a nearby fluorophore.

Substance AeSSP1256:YFP (natural protein) registered a mean CFP lifetime of the donor with the acceptor (2.86 ns +/- 0.02 without) in test [1] of 2.53 ns. Besides, in test [2], the mean CFP lifetime of the donor with the acceptor (2.83 ns +/- 0.03 without) worked out at 2.46 ns.

Values taken from publication doi:10.1101/2020.06.17.157404.
